Measurements as given in article doi:10.1101/859132 (bioRxiv, 2019).

Tests used:
Assay in all cases: pull-down
Maf1-id T33E/T34E = molecular target: T1, Maf1-id T33E/T34E (S. cerevisiae, UniProt P41910 1-395, Δ64-194 | T33E | T34E)
T1 sequence (looked up): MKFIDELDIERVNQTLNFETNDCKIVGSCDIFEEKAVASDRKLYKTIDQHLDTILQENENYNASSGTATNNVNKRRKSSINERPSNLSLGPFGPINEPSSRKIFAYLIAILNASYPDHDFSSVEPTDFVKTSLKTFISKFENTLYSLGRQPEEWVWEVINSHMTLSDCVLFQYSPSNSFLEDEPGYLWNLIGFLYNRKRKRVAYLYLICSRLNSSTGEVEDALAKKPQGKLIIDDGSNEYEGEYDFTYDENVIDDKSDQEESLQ

Maf1-id (Maf1 Δ64-194) = molecular target: T2, Maf1-id (Maf1 Δ64-194) (S. cerevisiae, UniProt P41910 1-395, Δ64-194)
T2 sequence (looked up): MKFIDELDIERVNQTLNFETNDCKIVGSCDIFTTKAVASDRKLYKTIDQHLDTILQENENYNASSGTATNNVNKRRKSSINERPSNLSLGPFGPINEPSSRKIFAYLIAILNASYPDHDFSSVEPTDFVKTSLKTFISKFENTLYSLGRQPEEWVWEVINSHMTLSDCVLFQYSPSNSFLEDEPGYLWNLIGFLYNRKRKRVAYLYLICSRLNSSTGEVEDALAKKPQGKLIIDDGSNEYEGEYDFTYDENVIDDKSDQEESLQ

Maf1-id D248A/D250A = molecular target: T3, Maf1-id D248A/D250A (S. cerevisiae, UniProt P41910 1-395, Δ64-194 | D248A | D250A)
T3 sequence (looked up): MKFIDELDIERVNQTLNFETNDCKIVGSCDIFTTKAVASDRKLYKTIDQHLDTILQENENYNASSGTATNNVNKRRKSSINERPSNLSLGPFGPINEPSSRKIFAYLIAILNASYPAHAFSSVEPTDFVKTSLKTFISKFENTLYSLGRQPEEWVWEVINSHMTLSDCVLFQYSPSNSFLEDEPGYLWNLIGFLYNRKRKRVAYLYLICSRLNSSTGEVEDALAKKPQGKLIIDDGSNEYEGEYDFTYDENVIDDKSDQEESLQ

Maf1-id L318S/W319S = molecular target: T4, Maf1-id L318S/W319S (S. cerevisiae, UniProt P41910 1-395, Δ64-194 | L318S | W319S)
T4 sequence (looked up): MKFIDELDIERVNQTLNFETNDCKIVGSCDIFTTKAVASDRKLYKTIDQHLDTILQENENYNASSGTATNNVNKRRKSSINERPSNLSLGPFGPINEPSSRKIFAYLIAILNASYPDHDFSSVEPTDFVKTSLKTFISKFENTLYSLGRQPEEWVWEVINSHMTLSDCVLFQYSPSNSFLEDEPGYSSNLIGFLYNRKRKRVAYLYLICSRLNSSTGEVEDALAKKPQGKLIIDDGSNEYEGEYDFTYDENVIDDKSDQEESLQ

- binding result (Maf1-id T33E/T34E): binds
- binding result (Maf1-id (Maf1 Δ64-194)): binds
- binding result (Maf1-id D248A/D250A): binds
- binding result (Maf1-id L318S/W319S): binds
B1: C34 1-156 (the two N-terminal C34 WH domains), His-tagged (domain or fragment, S. cerevisiae, UniProt P32910 1-156, looked up)
chain: MSGMIENGLQLSDNAKTLHSQMMSKGIGALFTQQELQKQMGIGSLTDLMSIVQELLDKNLIKLVKQNDELKFQGVLESEAQKKATMSAEEALVYSYIEASGREGIWSKTIKARTNLHQHVVLKCLKSLESQRYVKSVKSVKFPTRKIYMLYSLQPS
